From publication PMC6486636, “LARP4A recognizes polyA RNA via a novel binding mechanism mediated by disordered regions and involving the PAM2w motif, revealing interplay between PABP, LARP4A and mRNA” (Nucleic Acids Research, 2019)

Key:
Settings in all cases: both partners purified
[1] = target: T1, LARP4A (1-287), N-terminal domain (human, UniProt Q71RC2 1-287); assay: pull-down; His-SUMO-MLLE (200 ug) as bait mixed with 250 ug untagged LARP4A protein on ice, Ni-NTA agarose, washes in 50 mM Tris pH 7.25, 100 mM KCl, 0.2 mM EDTA, 1 mM DTT, 10 mM imidazole, elution with 500 mM imidazole, Coomassie SDS-PAGE
T1 construct: LARP4A (LARP4), human, residues 1-287 (NTR 1-111 with PAM2w motif 13-26, plus La module 111-287); The NTD was cloned both with a TEV-cleavable His6 tag (pRSFDuet-1) and with a His6-SUMO tag (pET28SUMO, cut by ULP1); also called NTD; LARP4A NTD; source: E. coli Rosetta II, purified (His-Trap, tag cleaved, nickel column, heparin or DEAE); not shown: His6, N-terminal, cleaved

LARP4A NTD L15A = target: T2, LARP4A NTD L15A (human, UniProt Q71RC2 1-287, L15A); assay: as above
T2 construct: LARP4A (LARP4), human, residues 1-287, PAM2w single mutant; Generated from the NTD by site-directed mutagenesis; used untagged; source: E. coli Rosetta II, purified (His-Trap, tag cleaved, nickel column, heparin or DEAE); not shown: His6, N-terminal, cleaved

LARP4A NTD W22A = target: T3, LARP4A NTD W22A (human, UniProt Q71RC2 1-287, W22A); assay: as above
T3 construct: LARP4A (LARP4), human, residues 1-287, PAM2w single mutant; Generated from the NTD by site-directed mutagenesis; used untagged; source: E. coli Rosetta II, purified (His-Trap, tag cleaved, nickel column, heparin or DEAE); not shown: His6, N-terminal, cleaved

LARP4A NTD W22F = target: T4, LARP4A NTD W22F (human, UniProt Q71RC2 1-287, W22F); assay: as above
T4 construct: LARP4A (LARP4), human, residues 1-287, PAM2w single mutant; Generated from the NTD by site-directed mutagenesis; used untagged; source: E. coli Rosetta II, purified (His-Trap, tag cleaved, nickel column, heparin or DEAE); not shown: His6, N-terminal, cleaved

[2] = target: T1, LARP4A (1-287), N-terminal domain; assay: native gel or EMSA; competition EMSA: MLLE 12.5-200 uM titrated into a pre-formed complex of 7.5 uM LARP4A NTD and 2 nM 32P-oligoA15; competition constant KC from the fraction of bound RNA

T1 sequence (Q71RC2 1-287): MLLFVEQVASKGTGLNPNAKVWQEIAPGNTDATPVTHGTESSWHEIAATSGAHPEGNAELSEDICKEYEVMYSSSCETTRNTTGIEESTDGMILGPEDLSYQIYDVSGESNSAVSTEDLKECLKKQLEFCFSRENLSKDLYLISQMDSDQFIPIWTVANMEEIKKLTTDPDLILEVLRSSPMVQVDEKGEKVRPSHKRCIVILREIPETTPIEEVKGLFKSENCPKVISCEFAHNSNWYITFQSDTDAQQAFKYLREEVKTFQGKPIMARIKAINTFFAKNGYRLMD
T3 sequence (Q71RC2 1-287 W22A): as the sequence (Q71RC2 1-287) above, with W22A counted along it
T2 sequence (Q71RC2 1-287 L15A): as the sequence (Q71RC2 1-287) above, with L15A counted along it
T4 sequence (Q71RC2 1-287 W22F): as the sequence (Q71RC2 1-287) above, with W22F counted along it

binding result [1] | binding result (LARP4A NTD L15A) | binding result (LARP4A NTD W22A) | binding result (LARP4A NTD W22F) | binding result [2] | Binder
binds | binds | binds | binds | – | His-SUMO-MLLE (PABPC1 MLLE domain 544-626 fused with a His-tagged SUMO tag) (domain or fragment, UniProt P11940 544-626, looked up, Fragment 544-626 inserted into pET28SUMO; the tag was kept and used as the handle for Ni-NTA capture; source: E. coli Rosetta II, purified; not shown: His6-SUMO, N-terminal, kept) PLTASMLASAPPQEQKQMLGERLFPLIQAMHPTLAGKITGMLLEIDNSELLHMLESPESLRSKVDEAVAVLQAHQAKEAAQKA
– | – | – | – | binds | PABPC1 MLLE (544-626) (domain or fragment, UniProt P11940 544-626, looked up, also called PABP MLLE; MLLE domain; source: E. coli Rosetta II, purified (glutathione agarose, 3C protease, nickel column, SEC); not shown: GST, N-terminal, cleaved) PLTASMLASAPPQEQKQMLGERLFPLIQAMHPTLAGKITGMLLEIDNSELLHMLESPESLRSKVDEAVAVLQAHQAKEAAQKA
